Reference: patent publication US11331368B2, “Angiotensin receptor agonists and uses thereof” (Monash University, priority 2017, dated 2022)
Square brackets hold non-standard residues; d marks the D form. Primed or numbered codes have the meaning given here. Ends that are not written are not given here. * marks the point of attachment. Cholyl = C[C@H](CCC(=O)*)[C@H]1CC[C@H]2[C@@H]3[C@H](O)C[C@@H]4C[C@H](O)CC[C@]4(C)[C@H]3C[C@H](O)[C@]12C; βPhe = beta-form phenylalanine; βArg = beta-form arginine; βTyr = beta-form tyrosine; βPro = beta-form proline; βVal″ = beta-form valine

T1: human AT2R (Homo sapiens, UniProt P50052)
T1 construct: expressed in transfected cells
T1 sequence (P50052 1-363): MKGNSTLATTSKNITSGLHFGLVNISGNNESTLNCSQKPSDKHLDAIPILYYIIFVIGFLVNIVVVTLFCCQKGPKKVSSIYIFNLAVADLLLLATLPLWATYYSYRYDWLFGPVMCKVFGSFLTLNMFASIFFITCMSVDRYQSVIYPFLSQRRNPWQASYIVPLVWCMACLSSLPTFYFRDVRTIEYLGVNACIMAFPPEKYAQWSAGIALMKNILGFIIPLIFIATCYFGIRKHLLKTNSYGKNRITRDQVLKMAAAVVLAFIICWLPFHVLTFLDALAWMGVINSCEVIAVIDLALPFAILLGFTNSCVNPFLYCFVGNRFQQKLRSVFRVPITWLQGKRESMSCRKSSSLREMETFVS

T2: human Angiotensin II Receptor Type 2 (AT2R) (human, UniProt P50052 1-363)
T2 construct: whole, on cells; also endogenous on human cardiac fibroblasts (functional entries); also called AT2 receptor
T2 sequence (looked up): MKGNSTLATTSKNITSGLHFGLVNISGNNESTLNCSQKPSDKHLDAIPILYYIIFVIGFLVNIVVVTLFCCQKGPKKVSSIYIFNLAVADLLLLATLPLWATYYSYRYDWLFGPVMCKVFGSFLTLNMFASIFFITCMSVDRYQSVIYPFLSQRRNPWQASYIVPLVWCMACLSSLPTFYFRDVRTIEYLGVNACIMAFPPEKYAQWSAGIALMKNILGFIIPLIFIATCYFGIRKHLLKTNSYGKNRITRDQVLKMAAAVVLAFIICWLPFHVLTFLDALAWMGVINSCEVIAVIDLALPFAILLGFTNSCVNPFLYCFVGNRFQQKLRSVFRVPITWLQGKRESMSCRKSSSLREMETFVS


Legend:
human AT2R = molecular target: T1, human AT2R; assay: Competition radioligand binding (125I-Sar1-Ile8-AngII) in AT2R-transfected HEK-293 cells; conditions: AT2R over AT1R, Table 3
[1] = molecular target: T2, human Angiotensin II Receptor Type 2 …; assay: competition radioligand binding on HEK-293 cells with AT2R; competitor [125I]-Sar1Ile8Ang II
Description: For each experiment, each ligand concentration was tested in duplicate or triplicate, and each experiment was repeated at least 3 separate times.

| Molecule | Fold AT2R selectivity (human AT2R) | IC50 [1] [nM] |
| --- | --- | --- |
| Nicotinamido-Arg-Val-Tyr-Ile-His-β-Pro-Trp [Nic-βPro-Trp-8-Ang III] | >15,000 fold | – |
| RV[βTyr]IHPF-OH (synthetic peptide; also called Arg-Val-β-Tyr-Ile-His-Pro-Phe) [βTyr-Ang III] | – | 1.82 |
| D[βArg]VYIHPA-OH (synthetic peptide; also called Asp-β-Arg-Val-Tyr-Ile-His-Pro-Ala) [βArg-Ala-8-Ang II] | – | 12.5 |
| [dR]VYIHPF-OH (synthetic peptide; also called D-Arg-Val-Tyr-Ile-His-Pro-Phe) [D-Arg-Ang III] | – | 25 |
| RVYIHP[βPhe]-OH (synthetic peptide; also called Arg-Val-Tyr-Ile-His-Pro-β-Phe) [βPhe-Ang III] | – | 20.3 |
| R[βVal″]YIHPA-OH (synthetic peptide; also called Arg-β-Val-Tyr-Ile-His-Pro-Ala) [βVal-Ala-8-Ang III] | – | 8.1 |

More lines, in order of falling IC50 [1], values ahead:

| Fold AT2R selectivity (human AT2R) | IC50 [1] [nM] | Molecule |
| --- | --- | --- |
| – | 6.5 | [βArg]VYIHPA-OH (synthetic peptide; also called β-Arg-Val-Tyr-Ile-His-Pro-Ala) [βArg-Ala-8-Ang III] |
| – | 0.384 | RV[βTyr]IHPW-OH (synthetic peptide; also called β-Tyr^4-Trp^8-Ang III; β-Tyro-Trp^8-Ang III) [βTyr-Trp-8-Ang III] |
| – | 0.34 | Ac-RVYIH[βPro]W-OH (synthetic peptide; also called N-Ac-β-Pro^7-Trp^8-Ang III; N-Ac-Pro^7-Trp^8-Ang III) [NAc-βPro-Trp-8-Ang III] |
| – | 0.12 | nicotinamido-RVYIH[βPro]F-OH (synthetic peptide; also called Nicotinamido-Arg-Val-Tyr-Ile-His-β-Pro-Phe) [Nic-βPro-Ang III] |
| – | 0.05 | Cholyl-RVYIH[βPro]F-OH (synthetic peptide; also called Cholate-Arg-Val-Tyr-Ile-His-β-Pro-Phe) [Cholic Acid-βPro-Ang III] |
